Laboratory results: US20200239541A1 (XYPHOS BIOSCIENCES, published 2020)
Changes are numbered by the printed parent chain.

B1: trastuzumab-MICwed MicAbody (bispecific antibody, human IgG1, kappa)
heavy: not shown
light: not shown
chain: EPHSLRYNLTVLSWDGSVQSGFLTEVHLDGQPFLRCDRQKCRAKPQGQWAEDVLGNKTWDRETRDLTGWGKDLRMTLAHIKDQKEGLHSLQEIRVCEIHEDNSTRSSQHFYYDGELFLSQNLETKEWTMPQSSRAQTLAMNVRNFLKEDAMETDTHYHAMHADCLQELRRYLKSGVVLRRTV
B2: trastuzumab-MIC25 MicAbody (bispecific antibody, human IgG1, kappa)
heavy: not shown
light: not shown
chain: B1 chain with K125L, H161R, Q166S

How the values were obtained:
[1] = target: T1, Fc-NKG2D.wt (human); assay: ELISA (called Kd in the text)
T1 construct: also called NKG2D.wt Y|Y; natural Fc-NKG2D
T1 sequence (chain, as listed by the source limits assumed): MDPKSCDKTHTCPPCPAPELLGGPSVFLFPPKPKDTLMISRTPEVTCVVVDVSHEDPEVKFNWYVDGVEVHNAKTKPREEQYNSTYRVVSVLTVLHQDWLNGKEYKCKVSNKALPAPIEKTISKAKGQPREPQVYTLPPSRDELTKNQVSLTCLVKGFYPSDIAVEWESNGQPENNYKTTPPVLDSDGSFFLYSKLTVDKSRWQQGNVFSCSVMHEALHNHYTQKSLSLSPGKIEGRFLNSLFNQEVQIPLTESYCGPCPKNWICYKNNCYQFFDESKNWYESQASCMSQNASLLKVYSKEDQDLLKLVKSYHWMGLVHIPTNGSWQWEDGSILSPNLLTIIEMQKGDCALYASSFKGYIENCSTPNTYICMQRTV
Protocol: (§1) The binding affinities of α1-α2 variants to the extracellular domains of natural (wild-type) NKG2D and non-natural eNKG2D proteins were analyzed using a plate-based ELISA method. Each of the SEC fractionated natural Fc-NKG2D and non-natural Fc-eNKG2D fusions were coated overnight at 4° C. onto separate wells of Nunc Maxisorp 96 well plates (Thermo Fisher Scientific, Waltham, Mass.) using a coating concentration of 1 μg/mL in phosphate-buffered saline (PBS). The plates were washed three times in PBS/0.05% Tween-20 (PBS-T) at 20-22° C., and blocked with 0.5% bovine serum albumin in PBS (PBS-B) for 2 hours at 20-22° C. MicAbodies were titrated against the plate-bound natural or non-natural Fc-NKG2D fusions for 60 minutes at 20-22° C. in PBS/0.5% bovine serum albumin (BSA)/0.05% Tween-20 (PBS-BT), washed 3 times with PBS-T at 20-22° C., and the bound bispecific proteins detected using an HRP-conjugated anti-human kappa in PBS-BT (Abcam, Cambridge Mass.) and developed with 1-Step™ Ultra TMB ELISA Substrate Solution (Thermo Fisher Scientific, Waltham, Mass.).

[2] = target: T1, Fc-NKG2D.wt; assay: ELISA, Fc-NKG2D coated, MicAbody titrated from 300 nM
Protocol: as §1

[3] = target: T2, Fc-eNKG2D2 (Y152S) (human); assay: as above
T2 construct: also called eNKG2D2 S|Y; not shown: human IgG1 Fc (without Fab domains)
T2 sequence (chain, as listed by the source Y152S Y152S): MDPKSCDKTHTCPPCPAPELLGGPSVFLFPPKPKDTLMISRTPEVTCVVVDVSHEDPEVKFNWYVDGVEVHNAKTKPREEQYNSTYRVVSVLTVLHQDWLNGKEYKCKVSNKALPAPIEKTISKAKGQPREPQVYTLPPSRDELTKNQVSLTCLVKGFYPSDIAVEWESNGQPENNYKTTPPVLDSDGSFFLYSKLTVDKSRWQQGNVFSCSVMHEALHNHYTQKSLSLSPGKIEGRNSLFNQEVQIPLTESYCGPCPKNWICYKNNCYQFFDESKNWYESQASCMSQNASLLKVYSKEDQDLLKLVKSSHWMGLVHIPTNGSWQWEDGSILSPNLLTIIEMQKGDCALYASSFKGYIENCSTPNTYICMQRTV
Protocol: as §1

[4] = target: T3, Fc-eNKG2D3 (Y152T) (human); assay: as above
T3 construct: also called eNKG2D3 T|Y
T3 sequence (chain, as listed by the source Y152T Y152T limits assumed): as the sequence (chain, as listed by the source limits assumed) above, with Y312T counted along it
Protocol: as §1

[5] = target: T4, Fc-eNKG2D4 (Y152V) (human); assay: as above
T4 construct: also called eNKG2D4 V|Y
T4 sequence (chain, as listed by the source Y152V Y152V limits assumed): as the sequence (chain, as listed by the source limits assumed) above, with Y312V counted along it
Protocol: as §1

[6] = target: T5, Fc-eNKG2D14 (Y152L) (human); assay: as above
T5 construct: also called eNKG2D14 L|Y
T5 sequence (chain, as listed by the source Y152L Y152L limits assumed): as the sequence (chain, as listed by the source limits assumed) above, with Y312L counted along it
Protocol: as §1

[7] = target: T6, Fc-eNKG2D6 (Y152L/Y199F) (human); assay: ELISA, Fc-eNKG2D coated, MicAbody titrated from 300 nM
T6 construct: also called eNKG2D6 L|F
T6 sequence (chain, as listed by the source Y152L Y199F Y152L Y199F limits assumed): as the sequence (chain, as listed by the source limits assumed) above, with Y312L, Y359F counted along it
Protocol: as §1

[8] = target: T7, Fc-eNKG2D12 (Y152D/Y199D) (human); assay: as above
T7 construct: also called eNKG2D12 D|D
T7 sequence (chain, as listed by the source Y152D Y199D Y152D Y199D limits assumed): as the sequence (chain, as listed by the source limits assumed) above, with Y312D, Y359D counted along it
Protocol: as §1

[9] = target: T8, Fc-eNKG2D13 (Y152E/Y199E) (human); assay: as above
T8 construct: also called eNKG2D13 E|E
T8 sequence (chain, as listed by the source Y152E Y199E Y152E Y199E limits assumed): as the sequence (chain, as listed by the source limits assumed) above, with Y312E, Y359E counted along it
Protocol: as §1

[10] = target: T9, Fc-NKG2D.Y152A (human); assay: BLI (Octet), Fc-eNKG2D captured on AHC tips, 20 nM MicAbody
T9 construct: also called eNKG2D A|Y; Fc-NKG2D.YA
T9 sequence (chain, as listed by the source Y152A Y152A limits assumed): as the sequence (chain, as listed by the source limits assumed) above, with Y312A counted along it
Protocol: (§2) Additional biophysical analysis of eNKG2D variant binding to ligands was also performed with Bio-Layer Interferometry (BLI) using the FortéBio Octet system (all FortéBio LLC, Fremont, Calif.). For these experiments human NKG2D ligands MICA-Fc, MICB-Fc, ULBP1-Fc, ULBP2-Fc, ULBP3-Fc, and ULBP4-Fc were purchased from R&D Systems, Inc. (Minneapolis, Minn.). Ligands in the MicAbody format were captured on anti-human IgG Fc capture (AHC) biosensor tips. After a baselines were established, tips were exposed to a titration series of Fc-eNKG2D fusion proteins ranging from 300 nM to 0.41 nM and association/dissociation kinetics monitored with all steps performed in PBS-BT. Subsequently, Fc-eNKG2D fusion proteins were captured onto AHC tips and MicAbodies were titrated to characterize binding kinetics.
(§3) Binding analysis under the same conditions was then performed with Fc-eNKG2D fusion receptors as the capture agent, and the level of binding for each eNKG2D ranked as a percentage of the maximal binding response established by Fc-NKG2D.wt (Table 2).

[11] = target: T2, Fc-eNKG2D2 (Y152S); assay: as above
Protocol: as §2, §3

[12] = target: T3, Fc-eNKG2D3 (Y152T); assay: as above
Protocol: as §2, §3

[13] = target: T4, Fc-eNKG2D4 (Y152V); assay: as above
Protocol: as §2, §3

[14] = target: T5, Fc-eNKG2D14 (Y152L); assay: as above
Protocol: as §2, §3

[15] = target: T10, Fc-eNKG2D1 (Y199F) (human); assay: as above
T10 construct: also called eNKG2D1 Y|F; not shown: human IgG1 Fc (without Fab domains)
T10 sequence (chain, as listed by the source Y199F Y199F): as the sequence (chain, as listed by the source Y152S Y152S) above, with S310Y, Y357F counted along it
Protocol: as §2, §3

[16] = target: T11, Fc-eNKG2D15 (Y152F/Y199F) (human); assay: ELISA, Fc-NKG2D coated, MicAbody titrated from 300 nM; ELISA, Fc-eNKG2D15 as capture agent, MicAbody titrated from 300 nM
T11 construct: also called eNKG2D15 F|F
T11 sequence (chain, as listed by the source Y152F Y199F Y152F Y199F limits assumed): as the sequence (chain, as listed by the source limits assumed) above, with Y312F, Y359F counted along it
Protocol: as §1

[17] = target: T6, Fc-eNKG2D6 (Y152L/Y199F); assay: ELISA, Fc-NKG2D coated, MicAbody titrated from 300 nM
Protocol: as §1

[18] = target: T11, Fc-eNKG2D15 (Y152F/Y199F); assay: as above
Protocol: as §1

[19] = target: T12, Fc-eNKG2D5 (Y152A/Y199F) (human); assay: BLI (Octet), Fc-eNKG2D captured on AHC tips, 20 nM MicAbody
T12 construct: also called eNKG2D5 A|F; Fc-NKG2D.AF
T12 sequence (chain, as listed by the source Y152A Y199F Y152A Y199F limits assumed): as the sequence (chain, as listed by the source limits assumed) above, with Y312A, Y359F counted along it
Protocol: as §2, §3

[20] = target: T13, Fc-eNKG2D7 (Y152S/Y199F) (human); assay: as above
T13 construct: also called eNKG2D7 S|F
T13 sequence (chain, as listed by the source Y152S Y199F Y152S Y199F limits assumed): as the sequence (chain, as listed by the source limits assumed) above, with Y312S, Y359F counted along it
Protocol: as §2, §3

[21] = target: T14, Fc-eNKG2D8 (Y152T/Y199F) (human); assay: as above
T14 construct: also called eNKG2D8 T|F
T14 sequence (chain, as listed by the source Y152T Y199F Y152T Y199F limits assumed): as the sequence (chain, as listed by the source limits assumed) above, with Y312T, Y359F counted along it
Protocol: as §2, §3

[22] = target: T15, Fc-eNKG2D9 (Y152V/Y199F) (human); assay: as above
T15 construct: also called eNKG2D9 V|F
T15 sequence (chain, as listed by the source Y152V Y199F Y152V Y199F limits assumed): as the sequence (chain, as listed by the source limits assumed) above, with Y312V, Y359F counted along it
Protocol: as §2, §3

Binder | EC50 [1] [nM] | EC50 [2] [nM] | EC50 [3] [nM] | EC50 [4] [nM] | EC50 [5] [nM] | EC50 [6] [nM] | binding result [8] | binding result [9] | percent of the maximal binding response of Fc-NKG2D.wt [10] [%] | percent of the maximal binding response of Fc-NKG2D.wt [11] [%] | percent of the maximal binding response of Fc-NKG2D.wt [12] [%] | percent of the maximal binding response of Fc-NKG2D.wt [13] [%] | percent of the maximal binding response of Fc-NKG2D.wt [14] [%] | percent of the maximal binding response of Fc-NKG2D.wt [15] [%] | further results
B1 | 0.007 | 0.0067 | 4.16 | 4.33 | 4.84 | 9.39 | no binding (tested: 300 nM) | no binding (tested: 300 nM) | 50 | 50 | 50 | 50 | 50 | 100 | binding result [7]: no binding (tested: 300 nM); EC50 [16]: 31.3 nM
B2 | ~0.005 | ~0.0039 | 0.0056 | 0.0056 | ~0.0043 | 0.01 | no binding (tested: 300 nM) | no binding (tested: 300 nM) | 100 | 100 | 100 | 100 | 100 | 100 | EC50 [17]: 0.37 nM; EC50 [18]: 0.046 nM; percent of the maximal binding response of Fc-NKG2D.wt [19]: 50%; percent of the maximal binding response of Fc-NKG2D.wt [20]: 50%; percent of the maximal binding response of Fc-NKG2D.wt [21]: 50%; percent of the maximal binding response of Fc-NKG2D.wt [22]: 100%
